Measured values taken from PMC5282649, “Binding site of restriction-modification system controller protein in Mollicutes”.

How the values were obtained:
[1] = target: T1, HsdC (controller protein of type I RM-system) (Mycoplasma gallisepticum S6, UniProt A0A0F6CKR7 1-64); experiment: EMSA; similar or slightly weaker than PhsdC; 20 mM Tris-HCl pH 7.5, 100 mM KCl, 6% glycerol, 15 min at 37 °C; 20 pmol protein with 10 pmol dsDNA; 6% acrylamide gel, TB buffer pH 8.3, 10 °C, EtBr stain; conditions: protein: recombinant; tags: C-terminal His-tag (pETm); chain copies: 2
MraZ [2] = target: T2, MraZ (UniProt Q7NB78 1-142); experiment: EMSA; strength comparable to own site; 20 mM Tris-HCl pH 7.5, 100 mM KCl, 6% glycerol, 15 min at 37 °C; 20 pmol protein with 10 pmol dsDNA; 6% acrylamide gel, TB buffer pH 8.3, 10 °C, EtBr stain; conditions: protein: recombinant; chain copies: 8
T2 sequence: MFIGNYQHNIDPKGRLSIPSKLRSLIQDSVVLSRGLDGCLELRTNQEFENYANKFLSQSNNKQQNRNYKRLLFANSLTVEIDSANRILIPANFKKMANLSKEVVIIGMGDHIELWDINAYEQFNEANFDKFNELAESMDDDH

[3] = target: T1, HsdC (controller protein of type I …); experiment: EMSA titration; printed as binding constant; 20 mM Tris-HCl pH 7.5, 100 mM KCl, 6% glycerol, 15 min at 37 °C; 20 pmol protein with 10 pmol dsDNA; 6% acrylamide gel, TB buffer pH 8.3, 10 °C, EtBr stain; conditions: protein: recombinant; tags: C-terminal His-tag (pETm); chain copies: 2
MraZ [4] = target: T2, MraZ; experiment: EMSA; control; 20 mM Tris-HCl pH 7.5, 100 mM KCl, 6% glycerol, 15 min at 37 °C; 20 pmol protein with 10 pmol dsDNA; 6% acrylamide gel, TB buffer pH 8.3, 10 °C, EtBr stain; conditions: protein: recombinant; chain copies: 8

B1: PclpB (dsDNA)
DNA 1: TAATAGCCTAAGTGCTAATTTTTTGTTATAATAAATCTAT
DNA 2: ATAGATTTATTATAACAAAAAATTAGCACTTAGGCTATTA
binding result [1]: binds

B2: PtrnM (dsDNA)
DNA 1: ATTGTTATTATATGATAATAATGTGTAACACATCGCGGGA
DNA 2: TCCCGCGATGTGTTACACATTATTATCATATAATAACAAT
binding result [1]: binds

B3: PhsdC-WT (dsDNA)
DNA 1: TTATCGGCTTTGTGTTAAAATAGTGTTAACGATTTTGAAG
DNA 2: CTTCAAAATCGTTAACACTATTTTAACACAAAGCCGATAA
binding result (MraZ [2]): binds | Kd [3]: ~5 nM

B4: PmraZ (dsDNA)
DNA 1: AATTCAAAAGTGTTAAAAAGTGTGAGAAAGTGGGAAAAAT
DNA 2: ATTTTTCCCACTTTCTCACACTTTTTAACACTTTTGAATT
binding result (MraZ [4]): binds
